Results taken from publication PMC8532158.

How the values were obtained:
Assay in all cases: yeast surface display affinity sorting with deep sequencing (deep mutational scanning); BPTI single and double mutant library on yeast, sorted by FACS into four affinity gates (HI, WT, SL, LO) for each protease; NGS enrichments converted into ΔΔG_bind by a normalization formula fitted on ΔΔG_bind values of purified proteins
[1] = molecular target: BPTI A16S displayed on the yeast surface (bovine)
[2] = molecular target: BPTI K15A displayed on the yeast surface (bovine)
[3] = molecular target: BPTI K15R displayed on the yeast surface (bovine)

Substance bovine trypsin (enzyme) has a ΔΔG bind against BPTI WT [1] of 4.5 kcal/mol, a ΔΔG bind against BPTI WT [2] of 11.1 kcal/mol and a ΔΔG bind against BPTI WT [3] of -1.4 kcal/mol.
